Laboratory results: patent US6759212B1, “Cell cycle-regulating proteins” (Chugai Seiyaku Kabushiki Kaisha, priority 1997, dated 2004)
Where “and” joins values, the source holds several entries; their conditions need not be identical. Identical values can stand only once.

What was measured:
NRK-49F cells = test: Abnormal cytokinesis: cells having two or more nuclei after transient transfection; assay type: cell-based, rat; details: 72 hours after transfection
Excerpt: (§1) To confirm the generality of this observation, AIM-1 (WT) and AIM-1 (K-R) plasmids were transiently expressed in NRK-49F cells and human diploid fibroblast KD cells and the results were compared with those obtained in a control transfected with vector alone. These constructs were transfected into cell-s with a reporter construct […] to prepare β-galactosidase-expressing plasmids for use as a positive internal control for transfection (Table 1).
(§2) (2) Abnormal Cytokinesis in Cells Expressing AIM-1 (K-R) Plasmid FLAG-AIM-1 (WT), FLAG-AIM-1 (K-R) or a control plasmid pEF/hygI was cotransfected with a reporter construct RSV-β-galactosidase at a ratio of 10:1 into NRK-49F cells and human diploid fibroblast KD cells (a kind gift of late Dr. Takeo Kakunaga) by Lipofectin method. After 24 hours, 1×10^3 cells were seeded per 60 mm dish, and 72 hours after transfection, cells were fixed in 1.25% glutaraldehyde/PBS and stained by a method described in literature (Shu et al., J.C.S. 108:2955-62, 1995) to observe expression of β-galactosidase. MvlLu cells were also tested under the conditions described in (1) B above.
(§3) 1. The figures in the table mean the percentage of cells having two or more nuclei to β-galactosidase positive cells for NRK-49F cells and KD cells or the percentage of cells having two or more nuclei to the total number of cells for MvlLu cells. […]

[1] = system: human diploid fibroblast KD cells; test: as above; assay type: cell-based; details: 72 hours after transfection
Excerpt: as §1, §2, §3

Mv1Lu cells [2] = test: Abnormal cytokinesis: cells having two or more nuclei, tetracycline-inducible expression, Giemsa staining; assay type: cell-based, mink; details: for percentage of cells having two or more nuclei to the total number of cells: Mv1Lu, 72 hours
Procedure: (§4) MvlLu cells carrying vector alone, wild-type FLAG-AIM-1 (WT) or FLAG-AIM-1 (K-R) were grown in the presence or absence of doxycycline (tetracycline analog) for 24 hours and then subjected to western blot with anti-FLAG antibody (FIG. 4A). […] In addition, the size of these cells was much larger than normal cells (FIGS. 4Bf and 5D). In these abnormal cells, however, spindle. functions including chromosome disjunction and late anaphase spindle elongation as well as nuclear division appeared unaffected (data not shown). This was further confirmed by flow cytometry (FACS) (FIG. 4C). […] Namely, apocytes appeared because karyokinesis advances but cytokinesis is inhibited.
Then, asynchronous cells transfected with vector alone (a, d), FLAG-AIM-1 (WT) (b, e) or FLAG-AIM-1 (K-R) (c, f) were grown with (a-c) or without (d-f) DOX for 72 hours and stained with Giemsa's solution. Results are shown in FIG. 4B, wherein upper panels are called as a, b and c from left to right, and lower panels are called as d, e and f from left to right.
as §2
1. The figures in the table mean the percentage of cells having two or more nuclei to β-galactosidase positive cells for NRK-49F cells and KD cells or the percentage of cells having two or more nuclei to the total number of cells for MvlLu cells. For each cell line, 160 or more cells were tested.

Mv1Lu cells [3] = test: FACS analysis of DNA content (propidium iodide); assay type: cell-based, mink; details: 72 hour-induction
Procedure: as §4
Cell samples were harvested and fixed with ethanol, stained with propidium iodide for FACS analysis.

Mv1Lu cells [4] = test: Growth for 2 weeks with or without DOX, Giemsa staining; assay type: cell-based, mink; details: grown 2 weeks with or without doxycycline
Procedure: The nuclei of these AIM-1 (K-R)-expressing cells divided 3 to 4 times during 4 to 5 days, resulting in more than 10 nuclei per cell (FIG. 5D).
Mv1Lu cells transfected with FLAG-AIM-1 (WT) or FLAG-AIM-1 (K-R) were grown with or without DOX for 2 weeks and stained with Giemsa's solution.

B1: AIM-1 (K-R): kinase-inactive (dominant negative) FLAG-AIM-1 in which lysine at the 109-position was replaced by arginine, expressed from plasmid (protein, UniProt O55099 1-343, looked up, variant K109R)
Aurora kinase B: MAQKENVYPWPYGSKTSQSGLNTLPQRVLRKEPAVTPAQALMNRSNSQSTAVPGQKLTENKGATALQGSQSRQPFTIDNFEIGRPLGKGKFGNVYLAREKKSRFIVALRILFKSQIEKEGVEHQLRREIEIQAHLKHPNILQLYNYFYDQQRIYLILEYAPRGELYKELQKSGTFDEQRTATIMEELSDALMYCHKKKVIHRDIKPENLLLGLQGELKIADFGWSVHAPSLRRKTMCGTLDYLPPEMIEGRMHNEMVDLWCIGVLCYELMVGNPPFESPSHSETYRRIVKVDLKFPSSMPLGAKDLISKLLKHNPSQRLPLEQVSAHPWVRANSRRVLPPSAL
modifications: N-terminal FLAG tag
NRK-49F cells
  percentage of cells having two or more nuclei to β-galactosidase positive cells: 62%
[1]
  percentage of cells having two or more nuclei to β-galactosidase positive cells: 38% and 38.4%
Mv1Lu cells [2]; Mv1Lu cells expressing construct, during 4 to 5 days
  nuclei per cell: more than 10
Mv1Lu cells [2]; DOX(+) (not induced)
  percentage of cells having two or more nuclei to the total number of cells: 7.7%
Mv1Lu cells [2]; DOX(−) (induced)
  percentage of cells having two or more nuclei to the total number of cells: 68.4%
Mv1Lu cells [2]; DOX(−) (induced), listed as FLAG-AIM-1 (K-R)
  percentage of cells having two or more nuclei to the total number of cells: about 68%
Mv1Lu cells [3]
  cell population with 4N or 8N DNA / cell cycle pattern (FACS): dramatically increased
Mv1Lu cells [4]
  effect on growth potency (mitotic inhibition): miotic inhibition was observed
